The record followed here is US20230072197A1 (KOREA UNIVERSITY RESEARCH AND BUSINESS FOUNDATION, published 2023).

For this assay, the target named is human FcRn (probe in the FACS analysis of bacterially displayed Fc variants) (human, UniProt P55899 24-297; P61769 21-119, limits assumed). In words: FACS of bacterially displayed Fc variants with human FcRn, pH 6.0.

Changes are numbered by the printed parent chain. In names and notes the source's numbering stands.

Sequence of human FcRn (probe in the FACS analysis of bacterially displayed Fc variants) (P55899 24-297 limits assumed, change not shown, chain 1 of 2): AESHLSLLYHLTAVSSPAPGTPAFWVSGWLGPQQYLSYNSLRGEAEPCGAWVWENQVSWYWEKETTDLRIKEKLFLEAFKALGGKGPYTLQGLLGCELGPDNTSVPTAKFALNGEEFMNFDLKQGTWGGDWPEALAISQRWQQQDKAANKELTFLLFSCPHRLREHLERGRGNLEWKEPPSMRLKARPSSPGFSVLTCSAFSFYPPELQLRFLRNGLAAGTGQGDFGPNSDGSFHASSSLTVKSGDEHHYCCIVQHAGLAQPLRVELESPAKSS
Sequence of human FcRn (probe in the FACS analysis of bacterially displayed Fc variants) (P61769 21-119 limits assumed, change not shown, chain 2 of 2): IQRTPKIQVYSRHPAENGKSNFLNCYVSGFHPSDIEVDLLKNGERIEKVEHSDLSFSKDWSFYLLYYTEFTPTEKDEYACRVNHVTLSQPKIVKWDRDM

B1: Fc variant L309G/Q311L/M428L (bacterial display) (other)
chain: DKTHTCPPCPAPELLGGPSVFLFPPKPKDTLMISRTPEVTCVVVDVSHEDPEVKFNWYVDGVEVHNAKTKPREEQYNSTYRVVSVLTVGHLDWLNGKEYKCKVSNKALPAPIEKTISKAKGQPREPQVYTLPPSRDELTKNQVSLTCLVKGFYPSDIAVEWESNGQPENNYKTTPPVLDSDGSFFLYSKLTVDKSRWQQGNVFSCSVLHEALHNHYTQKSLSLSPGK
notes: also called Q311L in M428L and L309G Fc variant
Take B1: the binding result is given as “binds”.

B2: Fc variant L309G/Q311V/M428L (bacterial display) (other)
chain: B1 chain with L91V
notes: also called Q311V in M428L and L309G Fc variant
As to B2, the binding result is recorded as “binds”.

B3: Fc variant L309G/Q311Y/M428L (bacterial display) (other)
chain: B1 chain with L91Y
notes: also called Q311Y in M428L and L309G Fc variant
With B3, the binding result is reported as “binds”.

B4: Fc variant L309G/Q311K/M428L (bacterial display) (other)
chain: B1 chain with L91K
notes: also called Q311K in M428L and L309G Fc variant
For the molecule B4, the binding result is given as “binds”.

B5: Fc variant L309G/Q311I/M428L (bacterial display) (other)
chain: B1 chain with L91I
notes: also called Q311I in M428L and L309G Fc variant
Regarding B5, the binding result was “binds”.

B6: Fc variant L309G/Q311W/M428L (bacterial display) (other)
chain: B1 chain with L91W
notes: also called Q311W in M428L and L309G Fc variant
With B6, the binding result is “binds”.

B7: Fc variant L309G/Q311A/M428L (bacterial display) (other)
chain: B1 chain with L91A
notes: also called Q311A in M428L and L309G Fc variant
Take B7: the binding result is listed as “binds”.

B8: Fc variant L309G/Q311H/M428L (bacterial display) (other)
chain: B1 chain with L91H
notes: also called Q311H in M428L and L309G Fc variant
For B8, the binding result is on record as “binds”.

B9: Fc variant L309G/Q311T/M428L (bacterial display) (other)
chain: B1 chain with L91T
notes: also called Q311T in M428L and L309G Fc variant
For B9, the binding result is recorded as “binds”.
